Test results published in article PMC9000915.

Target: gp41 subunit of ADA.CM.v4 Env on hVLPs (CTD truncated, stop codon at 756) (HIV-1 (subtype B isolate ADA))
Assay: cryo-EM structure; cryo-ET with sub-tomogram averaging of Env on purified, AT-2-treated ADA.CM.v4 hVLPs; C3 map 9.13 Å, C1 map 10.67 Å; PDB 6ULC fitted as rigid body

**Q.** Which stoichiometry N does the source give for “gp41 subunit of ADA.CM.v4 Env on hVLPs (CTD truncated, stop codon at 756) (natural protein)” here?
**A.** 3
